Laboratory results taken from article doi:10.1101/2022.11.30.518485 (bioRxiv, 2022).

Columns and labels:
[1] = target: tau pathology in PSP and AD (Homo sapiens, UniProt P10636); experiment: immunostaining of cells or tissue
[2] = target: Abeta in AD (senile plaques) (Homo sapiens, UniProt P05067); experiment: immunostaining of cells or tissue

Sequence of tau pathology in PSP and AD (P10636 whole entry): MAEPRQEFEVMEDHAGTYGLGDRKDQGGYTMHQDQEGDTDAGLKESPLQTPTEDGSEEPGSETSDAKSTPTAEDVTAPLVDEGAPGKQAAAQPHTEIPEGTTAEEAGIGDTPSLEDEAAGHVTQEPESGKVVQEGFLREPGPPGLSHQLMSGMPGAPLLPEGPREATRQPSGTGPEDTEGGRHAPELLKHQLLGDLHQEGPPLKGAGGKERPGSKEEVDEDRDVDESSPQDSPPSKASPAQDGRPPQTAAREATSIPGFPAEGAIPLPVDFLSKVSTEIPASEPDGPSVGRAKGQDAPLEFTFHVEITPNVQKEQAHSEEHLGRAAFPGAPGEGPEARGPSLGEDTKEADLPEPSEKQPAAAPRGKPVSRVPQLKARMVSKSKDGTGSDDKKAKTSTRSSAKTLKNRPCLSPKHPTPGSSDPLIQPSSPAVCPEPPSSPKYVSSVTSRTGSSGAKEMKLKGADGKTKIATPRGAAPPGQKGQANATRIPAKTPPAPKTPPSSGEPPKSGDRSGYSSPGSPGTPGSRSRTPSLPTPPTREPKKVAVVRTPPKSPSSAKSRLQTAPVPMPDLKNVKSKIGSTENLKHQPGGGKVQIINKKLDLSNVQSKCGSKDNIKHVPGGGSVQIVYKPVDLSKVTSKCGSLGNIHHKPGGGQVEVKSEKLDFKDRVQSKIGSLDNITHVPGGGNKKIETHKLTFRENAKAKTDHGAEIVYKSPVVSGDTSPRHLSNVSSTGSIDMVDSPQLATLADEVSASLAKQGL

B1: 306C7B3 (native IgG purified from the hybridoma clone) (antibody, V domains shown)
VH: EVQLVESGGGLVKPGGSRKLSCAASGFTFSDHGMHWVRQAPEKGLEWVAYISSGSSTIYYADTVKGRFTISRDNAKNTLFLQMTSLRSEDTAMYYCARSYIPYWGQGTLVTVSA
VL: DVVMTQTPLSLPVSLGDQASISCRSSQSLVHSNGNTYLHWYLQKPGQSPKLLIYKVSNRFSGVPDRFSGSGSGTDFTLKISRVEAEDLGVYFCSQSTHVPWTFGGGTKLEIK
binding result [1]: no binding (tested: 1:10000 dilution) | binding result [2]: no binding (tested: 1:10000 dilution)
